Assay [1] deals with T1, MHGW8 (B2m-3(G4S)-HLA-G1-G4S-Avi), soluble HLA-G1 extracellular domain (human, biotinylated (Avi tag) in the ligand blocking assay).
T1 construct: also called HLA-G (MHGW8); recombinant biotinylated HLA-G1 (MHGW8)
In words: competition, flow cytometry: antibody titrated against MHGW8-dextramer binding to ILT4 on HEK293T cells (competitor ILT4).

The target in assay [2] is T2, HLA-G1 on K562 cells (K562-HLA-G) (human).
T2 construct: also called cells expressing HLA-G
In words: flow cytometry; IgG1 mAb on cells expressing HLA-G.

Assay [3] addresses T1, MHGW8 (B2m-3(G4S)-HLA-G1-G4S-Avi), …. The experiment in a line: competition, flow cytometry: antibody titrated against MHGW8-dextramer binding to ILT2 on HEK293T cells (competitor ILT2). On the technique in general: Flow cytometry measures light scatter and fluorescence of single cells or particles in a stream.
The target in assay [4] is HLA-G on NCI-H2009-b2m target cells (human, UniProt P17693 25-338). In words: cell-based or functional assay.
In assay [5] the target is T3, CD3 on human T cells (Jurkat cells, primary human T cells) (human, UniProt P07766 23-207).
T3 construct: whole, on cells; also called CD3 epsilon; T cell receptor complex
T3 sequence (P07766 23-207): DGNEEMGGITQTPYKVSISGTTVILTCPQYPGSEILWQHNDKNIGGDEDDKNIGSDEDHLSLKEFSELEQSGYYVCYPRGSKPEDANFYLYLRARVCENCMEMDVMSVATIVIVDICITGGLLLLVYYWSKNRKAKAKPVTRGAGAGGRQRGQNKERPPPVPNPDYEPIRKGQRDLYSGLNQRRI
The experiment in a line: T cell binding (method not described).

The target in assay [6] is T2, HLA-G1 on K562 cells (K562-HLA-G). The experiment in a line: K562-HLA-G cell binding (method not described).

Usually EC50 stands for the concentration needed to bring the measured effect to its halfway point.

B1: MHGB672 (antibody, human IgG1, kappa, V domains shown)
VH: QVQLQQSGPGLVKPSQTLSLTCAISGDSVSSNRAAWNWIRQTPSRGLEWLGRTYYRSEWYNDYAVSVKSRITINPDTSKNQFSLQLNSVTPEDTAVYYCARVRAAVPFDYWGQGTLVTVSS
VL: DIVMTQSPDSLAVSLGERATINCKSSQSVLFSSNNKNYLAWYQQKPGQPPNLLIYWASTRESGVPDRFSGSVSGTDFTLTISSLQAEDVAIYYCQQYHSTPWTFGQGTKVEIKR
notes: IgG1 mAb
B1: the concentration for a half-maximal effect (EC50) in assay [1] was 1.61 nM; in assay [3], 2.12 nM. In addition, in assay [2], the “Geomean fluorescence signal (maximum value for binding)” value (“Geomean fluorescence signal” for short) came to 522000.

B2: MHGB738 (GL optimized B688) (antibody, human IgG1, kappa, V domains shown)
VH: QVQLQQSGPGLVKPSQTLSLTCAISGDSVSSNRAAWNWIRQSPSRGLEWLGRTYYRSKWYNDYAVSVKSRITINPDTSKNQISLQLNSVTPEDTAVYYCARVRPGIPFDYWGQGTPVTVSS
VL: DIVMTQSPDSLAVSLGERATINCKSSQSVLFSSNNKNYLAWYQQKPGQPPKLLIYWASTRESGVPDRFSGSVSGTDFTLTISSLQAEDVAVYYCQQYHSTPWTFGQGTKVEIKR
notes: IgG1 mAb
In the case of B2, the values for the concentration giving a half-maximal response (EC50) in assay [1] and in assay [3] were 0.8 nM and 0.73 nM, respectively.

B3: MHGB665/MHGB732 (one printed row for both names), IgG1 mAb (antibody, V domains shown)
VH: QVQLQQSGPGLVKPSQTLSLTCAISGDSVSSNSAAWNWIRQSPSRGLEWLGRTYYRSKWYNDYAVSVKSRITINPDTSKNQISLQLNSVTPEDTAVYYCAGDRRYGIVGLPFAYWGQGTLVTVSS
VL: not shown
notes: tested as IgG1 mAb
Take B3: the “Geomean fluorescence signal” value in assay [2] amounted to 632000.

B4: MHGB688 (antibody, human IgG1, kappa, V domains shown)
VH: EVQLLESGPGLVKPSQTLSLTCVISGDSVSSNRAAWNWIRQSPSRGLEWLGRTYYRSKWYNDYAVSVKSRITINSDTSKNQISLQLNSVTPEDTAVYYCARVRPGIPFDYWGQGTPVTVSS
VL: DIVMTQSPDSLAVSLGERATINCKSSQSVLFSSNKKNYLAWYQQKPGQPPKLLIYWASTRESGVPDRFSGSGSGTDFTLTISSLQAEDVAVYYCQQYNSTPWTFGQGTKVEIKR
notes: IgG1 mAb
As for B4, the half-maximal effective concentration (EC50) in assay [1] amounted to 1.42 nM; in assay [3], 1.72 nM. Also, the “Geomean fluorescence signal” value in assay [2] was 482000.

B5: MHGB669 (antibody, human IgG1, kappa, V domains shown)
VH: QVQLQQSGPGLVRPSQTLSVTCAISGDSVSSNSASWNWIRQSPSRGLEWLGRTYYRSEWFNDYAVSVKSRVTINPDTSKNQLSLQLNSVIPEDTAVYYCAREARIGVAGKGFDYWGQGTLVTVSS
VL: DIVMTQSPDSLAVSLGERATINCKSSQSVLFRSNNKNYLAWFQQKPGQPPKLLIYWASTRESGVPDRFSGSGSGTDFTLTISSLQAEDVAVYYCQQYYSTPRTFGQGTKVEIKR
notes: IgG1 mAb
For the molecule B5, the results for the EC50 in assay [1] and in assay [3] were 1.59 nM and 1.7 nM, respectively. The “Geomean fluorescence signal” value in assay [2] was 616000.

B6: MHGB668 (antibody, human IgG1, kappa, V domains shown)
VH: QVQLQQSGPGLVKPSQTLSLTCAISGDSVSNNSAAWNWIRQSPSRGLEWLGRTYYRSKWYNDYAVSVKSRITINPDTSKNQFSLQLNSVTPEDTAVYYCARYGSGTLLFDYWGQGTLVTVSS
VL: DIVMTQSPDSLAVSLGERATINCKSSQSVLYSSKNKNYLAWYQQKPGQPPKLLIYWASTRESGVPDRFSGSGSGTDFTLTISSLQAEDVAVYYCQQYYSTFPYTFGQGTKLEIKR
notes: IgG1 mAb
Turning to B6, in assay [2], the “Geomean fluorescence signal” value amounted to 591000.

B7: MHGB687 (antibody, human IgG1, kappa, V domains shown)
VH: QLQLQESGPGLVKPSETLSLMCTVSGGSITSSSYYWGWIRQPPGKGLEWIGNIYYSGTTYYNPSLKSRVTISVDTSKNQFSLKLSSVTAADTAVYYCAAGARDFDSWGQGSLVTVSS
VL: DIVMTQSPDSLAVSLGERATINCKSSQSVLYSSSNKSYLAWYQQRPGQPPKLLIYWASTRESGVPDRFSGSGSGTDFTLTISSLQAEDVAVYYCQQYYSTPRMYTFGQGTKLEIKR
notes: IgG1 mAb
In turn, B7 had a concentration for a half-maximal effect (EC50) in assay [1] of 1.86 nM. The “Geomean fluorescence signal” value in assay [2] amounted to 528000.

B8: MHGB694 (antibody, human IgG1, kappa, V domains shown)
VH: EVQLLESGGGLVQPGGSLRLSCAASGFTFSSYAMHWVRQAPGKGLDWVSGISGSGFSTYYVDSVKGRFTISRDNSKHTLYLQMNSLRAEDTAVYYCAKDNLVAGTVFDYWGQGTLVTVSS
VL: not shown
notes: IgG1 mAb
Consider B8, for which the EC50 in assay [1] worked out at 0.2 nM; in assay [3] it was 0.64 nM. The “Geomean fluorescence signal” value in assay [2] is 473000.

B9: HC3B216 (CD3B376-Fab-Fc x MHGB737-scFv-Fc) (bispecific antibody, human IgG1, lambda, L234A L235A)
heavy: QVQLQQSGPRLVRPSQTLSLTCAISGDSVFNNNAAWSWIRQSPSRGLEWLGRTYYRSKWLYDYAVSVKSRITVNPDTSRNQFTLQLNSVTPEDTALYYCARGYSSSFDYWGQGTLVTVSSASTKGPSVFPLAPSSKSTSGGTAALGCLVKDYFPEPVTVSWNSGALTSGVHTFPAVLQSSGLYSLSSVVTVPSSSLGTQTYICNVNHKPSNTKVDKKVEPKSCDKTHTCPPCPAPEAAGGPSVFLFPPKPKDTLMISRTPEVTCVVVSVSHEDPEVKFNWYVDGVEVHNAKTKPREEQYNSTYRVVSVLTVLHQDWLNGKEYKCKVSNKALPAPIEKTISKAKGQPREPQVYVYPPSREEMTKNQVSLTCLVKGFYPSDIAVEWESNGQPENNYKTTPPVLDSDGSFALVSKLTVDKSRWQQGNVFSCSVMHEALHNHYTQKSLSLSPGK
light: QSALTQPASVSGSPGQSITISCTGTSSNIGTYKFVSWYQQHPDKAPKVLLYEVSKRPSGVSSRFSGSKSGNTASLTISGLQAEDQADYHCVSYAGSGTLLFGGGTKLTVLGQPKAAPSVTLFPPSSEELQANKATLVCLISDFYPGAVTVAWKADSSPVKAGVETTTPSKQSNNKYAASSYLSLTPEQWKSHRSYSCQVTHEGSTVEKTVAPTECS
scFv: not shown
In the case of B9, in assay [4], the “Cytotoxicity, EC50 (M); T cell-mediated cytotoxicity against NCI-H2009-b2m cells, 72 hr, E:T 3:1” value was 1.9e-09 M.

B10: HC3B258 (CD3B376-Fab-Fc x MHGB732-LH-scFv-Fc) (bispecific antibody, human IgG1, lambda, L234A L235A)
heavy: QVQLQQSGPRLVRPSQTLSLTCAISGDSVFNNNAAWSWIRQSPSRGLEWLGRTYYRSKWLYDYAVSVKSRITVNPDTSRNQFTLQLNSVTPEDTALYYCARGYSSSFDYWGQGTLVTVSSASTKGPSVFPLAPSSKSTSGGTAALGCLVKDYFPEPVTVSWNSGALTSGVHTFPAVLQSSGLYSLSSVVTVPSSSLGTQTYICNVNHKPSNTKVDKKVEPKSCDKTHTCPPCPAPEAAGGPSVFLFPPKPKDTLMISRTPEVTCVVVSVSHEDPEVKFNWYVDGVEVHNAKTKPREEQYNSTYRVVSVLTVLHQDWLNGKEYKCKVSNKALPAPIEKTISKAKGQPREPQVYVYPPSREEMTKNQVSLTCLVKGFYPSDIAVEWESNGQPENNYKTTPPVLDSDGSFALVSKLTVDKSRWQQGNVFSCSVMHEALHNHYTQKSLSLSPGK
light: QSALTQPASVSGSPGQSITISCTGTSSNIGTYKFVSWYQQHPDKAPKVLLYEVSKRPSGVSSRFSGSKSGNTASLTISGLQAEDQADYHCVSYAGSGTLLFGGGTKLTVLGQPKAAPSVTLFPPSSEELQANKATLVCLISDFYPGAVTVAWKADSSPVKAGVETTTPSKQSNNKYAASSYLSLTPEQWKSHRSYSCQVTHEGSTVEKTVAPTECS
scFv: DIVMTQSPDSLAVSLGERATINCKSSQSVLHSSNNKNYLTWFQQKPGQPPKLLIYWASTRESGVPDRFSGSGSGTDFTLTISSLQAEDVAVYYCHQYYSTPPTFGQGTKVEIKGGSEGKSSGSGSESKSTGGSQVQLQQSGPGLVKPSQTLSLTCAISGDSVSSNSAAWNWIRQSPSRGLEWLGRTYYRSKWYNDYAVSVKSRITINPDTSKNQISLQLNSVTPEDTAVYYCAGDRRYGIVGLPFAYWGQGTLVTVSSEPKSSDKTHTCPPCPAPEAAGGPSVFLFPPKPKDTLMISRTPEVTCVVVSVSHEDPEVKFNWYVDGVEVHNAKTKPREEQYNSTYRVVSVLTVLHQDWLNGKEYKCKVSNKALPAPIEKTISKAKGQPREPQVYVLPPSREEMTKNQVSLLCLVKGFYPSDIAVEWESNGQPENNYLTWPPVLDSDGSFFLYSKLTVDKSRWQQGNVFSCSVMHEALHNHYTQKSLSLSPGK
Turning to B10, the EC50 in assay [5] was found to be 60 nM; in assay [6], 11 nM.

B11: HC3B214 (CD3W246-Fab-Fc x MHGB737-scFv-Fc) (bispecific antibody, human IgG1, kappa, L234A L235A)
heavy: EVQLVESGGGLVKPGGSLRLSCAASGFTFSRYNMNWVRQAPGKGLEWVSSISTSSNYIYYADSVKGRFTFSRDNAKNSLDLQMSGLRAEDTAIYYCTRGWGPFDYWGQGTLVTVSSASTKGPSVFPLAPSSKSTSGGTAALGCLVKDYFPEPVTVSWNSGALTSGVHTFPAVLQSSGLYSLSSVVTVPSSSLGTQTYICNVNHKPSNTKVDKKVEPKSCDKTHTCPPCPAPEAAGGPSVFLFPPKPKDTLMISRTPEVTCVVVSVSHEDPEVKFNWYVDGVEVHNAKTKPREEQYNSTYRVVSVLTVLHQDWLNGKEYKCKVSNKALPAPIEKTISKAKGQPREPQVYVYPPSREEMTKNQVSLTCLVKGFYPSDIAVEWESNGQPENNYKTTPPVLDSDGSFALVSKLTVDKSRWQQGNVFSCSVMHEALHNHYTQKSLSLSPGK
light: DIQMTQSPSSLSASVGDRVTITCRARQSIGTAIHWYQQKPGKAPKLLIKYASESISGVPSRFSGSGSGTDFTLTISSVQPEDFATYYCQQSGSWPYTFGQGTKLEIKRTVAAPSVFIFPPSDEQLKSGTASVVCLLNNFYPREAKVQWKVDNALQSGNSQESVTEQDSKDSTYSLSSTLTLSKADYEKHKVYACEVTHQGLSSPVTKSFNRGEC
scFv: not shown
For the molecule B11, the “Cytotoxicity, EC50 (M); T cell-mediated cytotoxicity against NCI-H2009-b2m cells, 72 hr, E:T 3:1” value in assay [4] was 1.38e-10 M.

Values taken from patent US20220033505A1 (Janssen / Centocor, published 2022).
